The term stoichiometry N denotes a count of units in the complex or per binding partner.

The target of experiment [1] is C11+C661-SecA (Escherichia coli) (UniProt P10408). Briefly: cross-linking.
Experiment [2] concerns the target C403-SecA (Escherichia coli) (UniProt P10408). Briefly: cross-linking.

As to “C11+C661-SecA (from UniProt P10408 1-901) (enzyme)”, the stoichiometry N in experiment [1] was determined as 2.

For “C403-SecA (from UniProt P10408 1-901) (enzyme)”, the stoichiometry N in experiment [2] came to 2.

These data come from article PMC6943190.
